Test results reported in PMC7217734 (Journal of biomolecular structure & dynamics, 2019).

Molecular target: peptide 91a (human)
Experiment: ITC

- Kd: 3 µM
- stoichiometry N: ~1
B1: peptide 374a (peptide)
chain: EELARLEREYQDLLNVKMALDIEIATYRKLLEALESR
